Measurements taken from patent publication US20170260575A1.
[ ]: non-standard residue; d: D form.

Target: integrin receptors on NIH/3T3 fibroblast cells
Experiment: cell-based or functional assay

cyclo(RGD[dF]K) (also: biotin-labelled (cRGDfK-biotin), bound via streptavidin) [cyclic Arg-Gly-Asp-d-Phe-Lys (cRGDfK) peptide]
decrease in Cy3B fluorescence under individual cells, Ttol=12 pN duplexes: 13.7% | decrease in Cy3B fluorescence under individual cells, Ttol=56 pN duplex: 6.5% | fold decrease in MCR signal of controls (duplexes lacking cRGDfK, scrambled duplexes) against the 12 pN cRGDfK surface: 150 fold
